{"source": "paper doi:10.1101/2022.02.23.481653", "about": "(bioRxiv, 2022)", "proteins": {"B1": {"name": "SEPT2-msfGFP (wild type) (natural protein)", "chain": "MSKQQPTQFINPETPGYVGFANLPNQVHRKSVKKGFEFTLMVVGESGLGKSTLINSLFLTDLYPERVIPGAAEKIERTVQIEASTVEIEERGVKLRLTVVDTPGYGDAINCRDCFKTIISYIDEQFERYLHDESGLNRRHIIDNRVHCCFYFISPFGHGLKPLDVAFMKAIHNKVNIVPVIAKADTLTLKERERLKKRILDEIEEHNIKIYHLPDAESDEDEDFKEQTRLLKASIPFSVVGSNQLIEAKGKKVRGRLYPWGVVEVENPEHNDFLKLRTMLITHMQDLQEVTQDLHYENFRSERLKRGGRKVENEDMNKDQILLEKEAELRRMQEMIARMQAQMQMQMQGGDGDGGALGHHV"}, "B2": {"name": "SEPT2NCmut-msfGFP (SEPT2 F20D, V27D) (natural protein)", "chain": "B1 chain with F20D, V27D"}}, "molecular_target": "the molecule itself", "assay": "native gel or EMSA", "note": "Changes are numbered by the printed parent chain. Names and notes keep the numbering of the source.", "data": [{"protein": "B1", "values": [{"measurement": "stoichiometry N", "result": 2}]}, {"protein": "B2", "values": [{"measurement": "stoichiometry N", "result": 2}]}]}
